This note sets out measurements from US12391751B2, “Antibody against advanced glycation end products and use thereof” (Bloom Technology Corporation, priority 2018, dated 2025).

One assay concerns the target Fru-AGEs-BSA (Bos taurus, UniProt P02769). As to the kind of experiment: Specificity of SJ-5 by competitive ELISA (Example 7). It counts as binding. Particulars: GAL13-BSA or Glycer-AGEs-BSA immobilized, POD-labeled SJ-5 0.4 μg/mL. In general terms: An ELISA detects its analyte on a solid surface through an enzyme-linked reagent.
The target in the next assay is T1, GAL13-BSA (Bos taurus, UniProt P02769).
T1 construct: purchased Sigma-Aldrich Co. LLC
As to the kind of experiment: Reactivity of novel monoclonal antibody by direct ELISA (Example 5). It counts as binding. The conditions noted are these: immobilized GAL13-BSA 1 μg/mL, POD-labeled antibody dilution series from 4 μg/mL. How it is done: BSA modified with the novel structure derived from Glycer-AGEs (GAL13-BSA) was added at 100 μL/well with a concentration of 1 μg/mL and immobilized overnight at 4° C. The plate was washed three times with PBS containing 0.05% (v/v) Tween 20 (PBS-T) and then blocked with PBS-T containing 0.5% (w/v) gelatin for 1 hour. The POD-labeled novel monoclonal antibody SJ-5 prepared in Example 4 and the anti-glyceraldehyde-derived AGEs polyclonal antibody as a control were serially diluted into 4-fold dilutions from 4 μg/mL to 0.06254 μg/mL to prepare dilution series, which were then added at 100 μL/well to the antigen-immobilized plate and left standing for 1 hour. After washing, an o-phenylenediamine solution (100 μL) prepared into 0.5 mg/mL with a 0.1 M citrate-phosphate buffer solution (pH 5.0) containing 0.02% (w/v) hydrogen peroxide was added to each well and left standing at 25° C. for 10 minutes. Then, color reaction was terminated by the addition of a 1 M sulfuric acid solution (50 μL) to each well. Then, absorbance at 490 nm was measured with a microplate reader.

A further assay relates to HUVEC. The experiment in a line: Neutralization test of vascular endothelial cell lumen formation inhibition using PB-1 (Example 35). The assay is classed as cell-based, human. The conditions noted are these: PB-1 pre-reacted with Glycer-AGEs-BSA; HUVEC, 8 hours. How it is done:
Matrigel matrix was prepared by the same operation as in Example 14.
10 μL of Glycer-AGEs-BSA (10 mg/mL) prepared in Example 1, 10 μL of phosphate-buffered saline (PBS, FUJIFILM Wako Pure Chemical Corp.), and 90 μL of the PB-1 antibody (10 mg/mL) or a control antibody (10 mg/mL) were added to a 1.5 mL tube (Watson) and left standing at room temperature for 10 minutes. Then, a supernatant was recovered by centrifugation at 14000 rpm for 15 minutes using a centrifuge (Thermo Fisher Scientific Inc.).
(3) A lumen formation inhibition test was conducted by the same operation as in Example 14. As shown in the drawing, HUVEC was confirmed to form a lumen in the Matrigel matrix in the control BSA addition group. […] Furthermore, this inhibition of lumen formation was neutralized by the reaction solution of PB-1.

The next assay has as its system mouse retinal tissue. The experiment in a line: Retinal tissue staining of diabetic mouse and control mouse (Example 36). Particulars: diabetic mice compared with control mice; antibody 1 mg/mL diluted 500-fold; Alexa 594 secondary. How it is done: A C57BL6/J mouse (CLEA Japan, Inc.) on 13 days of pregnancy was purchased, and child mice were obtained. For diabetic mice, streptozotocin (FUJIFILM Wako Pure Chemical Corp.) was dissolved at 5 mg/mL in saline (Otsuka Pharmaceutical Co., Ltd.) and subcutaneously administered at 300 μL to a male child mouse 2 days after birth. For control mice, saline was subcutaneously administered at 300 μL to a male child mouse 2 days after birth. After living together with the mother mouse for 4 weeks and subsequent weaning, the diabetic mice were raised with HFD32 (CLEA Japan, Inc.) for 8 weeks. The control mice were raised with CE-2 (CLEA Japan Inc.) for 8 weeks.
1.875 mL of Domitor (Nippon Zenyaku Kogyo Co., Ltd.), 2 mL of midazolam (Sandoz K.K.), 2.5 mL of Vetorphale (Meiji Seika Pharma Co., Ltd.), and 18.625 mL of saline were mixed to prepare a three drug-mixed anesthetic. The body weight of each mouse was measured with a scale (TANITA Corp.), and the three drug-mixed anesthetic was intraperitoneally administered at […]. […]
Acetone (FUJIFILM Wako Pure Chemical Corp.) was incubated for 16 hours or longer in a freezer (Fukushima Industries Corp.) set to −30° C. to prepare cold acetone. […] Then, the fluorescence of Alexa 594 in the retina was observed under a confocal laser microscope (Olympus Corp.).

T1 sequence (P02769 25-607): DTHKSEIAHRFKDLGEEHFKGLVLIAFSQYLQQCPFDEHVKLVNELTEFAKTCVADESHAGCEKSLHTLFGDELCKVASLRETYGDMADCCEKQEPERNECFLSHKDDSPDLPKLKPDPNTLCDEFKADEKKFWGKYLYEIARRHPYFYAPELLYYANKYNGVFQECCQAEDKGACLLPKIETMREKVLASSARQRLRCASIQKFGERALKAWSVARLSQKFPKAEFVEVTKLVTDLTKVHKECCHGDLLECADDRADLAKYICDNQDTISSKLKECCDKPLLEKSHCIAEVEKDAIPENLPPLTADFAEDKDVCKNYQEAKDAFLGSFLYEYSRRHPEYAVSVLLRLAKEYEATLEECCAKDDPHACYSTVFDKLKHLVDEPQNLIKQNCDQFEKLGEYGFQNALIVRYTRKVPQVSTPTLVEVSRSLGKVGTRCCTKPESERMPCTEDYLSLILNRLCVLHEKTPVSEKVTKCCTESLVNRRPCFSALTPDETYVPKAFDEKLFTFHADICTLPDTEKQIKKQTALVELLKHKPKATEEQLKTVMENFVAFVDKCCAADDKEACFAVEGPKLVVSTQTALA
Fru-AGEs-BSA, sequence (P02769 25-607): as above

B1: SJ-5: mouse monoclonal antibody raised against GAL13-MSA; heavy-chain variable region SEQ ID NO 4, light-chain variable region SEQ ID NO 8 (antibody, listed as Mus musculus, V domains shown)
VH: EVMLVESGGRLVKPGGSLKLSCAASGFTFSSYGMSWVRQTPEKRLEWVATISGGGSYTYYPDSVKGRFTISRDNVKNNLYLQMSSLRSEDTALYYCARRGAYGDYGWFAYWGQGTLVTVSA
VL: DIVLTQSPATLSVTPGDSVSLSCRASQSINNNLHWYQQKSHESPRLLIKCASQSISGIPSRFSGSGSGTDFTLSINSVETEDFGMYFCQQSNSWPLTFGAGTKLELK
Regarding B1, the “specificity: reactivity with Fru-AGEs-BSA” value in the assay with Fru-AGEs-BSA is reported as “negative”. Further, the “reactivity with GAL13-BSA (absorbance at 490 nm)” value with GAL13-BSA is listed as “react favorably”.

B2: PB-1: mouse monoclonal antibody raised against A-peak-BSA; heavy-chain variable region SEQ ID NO 18, light-chain variable region SEQ ID NO 22 (antibody, listed as Mus musculus, V domains shown)
VH: EVRLQQSGPELVKPGTSVKISCKASGYSFTGYYMHWVKQSPVKSLEWIGRIIPYNGATSYNQNFKDKASLTVDKSSRTAYMDLHSLTSEDSAVYYCARSRYYGRAPYYFDYWGQGTTLTVSS
VL: DVVVTQTPLSLPVSLGDQASISCRSSQSIVHSNGNTYLEWYLQKPGQSPKLLIYKVSNRFSGVPDRISGSGSGTDFTLKISRVEAGDLGVYSCFQGSHVPFTFGSGTKLEIK
Consider B2, for which, in the assay with HUVEC, the “neutralization of lumen formation inhibition by Glycer-AGEs-BSA” value is listed as “neutralized”. Moreover, the “staining of retinal ganglion cell layer, internal and external granular layers, retinal pigment epithelial cell layer” value in the assay on mouse retinal tissue was “bind strongly”.
